Here are results for 37 molecules from patent US20240400654A1.

The experiment has as its target HRgpA-6H (Porphyromonas gingivalis) (UniProt P28784). In words: ELISA, coated HRgpA-6H. On the technique in general: An ELISA detects its analyte on a solid surface through an enzyme-linked reagent.

Numbering of substitutions follows the chain as printed. In names and notes the source's numbering stands. Several values for one entry are separate records, joined by “and”; a condition that tells them apart may be missing. Identical values can stand only once.

Chain of UniProt P28784 (P28784 228-860 limits assumed): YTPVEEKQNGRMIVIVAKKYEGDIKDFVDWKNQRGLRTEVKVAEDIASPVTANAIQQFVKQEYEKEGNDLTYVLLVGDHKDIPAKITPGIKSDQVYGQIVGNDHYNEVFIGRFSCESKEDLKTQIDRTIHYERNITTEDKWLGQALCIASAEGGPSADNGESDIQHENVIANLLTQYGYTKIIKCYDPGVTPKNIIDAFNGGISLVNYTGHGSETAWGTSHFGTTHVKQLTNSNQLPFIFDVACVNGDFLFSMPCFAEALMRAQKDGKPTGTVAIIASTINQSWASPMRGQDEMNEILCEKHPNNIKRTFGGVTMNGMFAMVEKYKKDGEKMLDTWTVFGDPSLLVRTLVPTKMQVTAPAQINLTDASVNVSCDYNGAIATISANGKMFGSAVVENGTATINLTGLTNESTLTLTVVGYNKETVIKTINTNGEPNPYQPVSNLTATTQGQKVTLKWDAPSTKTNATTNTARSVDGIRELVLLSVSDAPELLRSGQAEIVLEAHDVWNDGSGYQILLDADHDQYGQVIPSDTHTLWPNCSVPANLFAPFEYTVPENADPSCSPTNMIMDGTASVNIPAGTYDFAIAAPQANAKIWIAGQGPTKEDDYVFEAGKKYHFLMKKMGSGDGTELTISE

B1: KB001 mouse Fab VL S30K (Fab, V domains shown)
VH: EVQLKQSGPGLVAPSQSLSITCTVSGFSLSIYSVHWVRQPPGKGLEWLGMIWGGGSSDYNSALKSRLSISKDNSKSQVFLKMNSLQTDDTAMYYCARNGNFYAMDYWGQGTSVTVSS
VL: QIVLTQSPAIMSASLGERVTMTCTASSSVKSSFLHWYQQKPGSSPQLWIYSTSNLASGVPARFSGSGSGTSYSLTISSMEAEDAATYYCHQYHHSPYIYTFGGGTKLEIK
On to B1, for which the OD450 nm was 0.77 and the Ratio OD(Variant)/OD(WT) was 0.893.

B2: KB001 mouse Fab VL N54W (Fab, V domains shown)
VH: B1 VH
VL: B1 VL with K30S, N54W
Consider B2, for which the OD450 nm was determined as 0.646 and the Ratio OD(Variant)/OD(WT) worked out at 0.825.

B3: KB001 mouse Fab VL F33N (Fab, V domains shown)
VH: B1 VH
VL: B1 VL with K30S, F33N
Take B3: the OD450 nm was found to be 0.64 and the Ratio OD(Variant)/OD(WT) was 0.844.

B4: KB001 mouse Fab VL S32Q (Fab, V domains shown)
VH: B1 VH
VL: B1 VL with K30S, S32Q
Consider B4, for which the OD450 nm was 0.716 and the Ratio OD(Variant)/OD(WT) stood at 0.847.

B5: KB001 mouse Fab VL L34M (Fab, V domains shown)
VH: B1 VH
VL: B1 VL with K30S, L34M
For B5, the OD450 nm was 0.736 and 0.741 and 0.714; the Ratio OD(Variant)/OD(WT) was 0.971 and 0.978 and 0.911.

B6: KB001 mouse Fab VL S32G (Fab, V domains shown)
VH: B1 VH
VL: B1 VL with K30S, S32G
On to B6, for which the OD450 nm is 0.759 and the Ratio OD(Variant)/OD(WT) amounted to 0.898.

B7: KB001 mouse Fab VL N54F (Fab, V domains shown)
VH: B1 VH
VL: B1 VL with K30S, N54F
In the case of B7, the OD450 nm was 0.765 and the Ratio OD(Variant)/OD(WT) is 0.976.

B8: KB001 mouse Fab VL S53Y (Fab, V domains shown)
VH: B1 VH
VL: B1 VL with K30S, S53Y
Regarding B8, the OD450 nm is 0.776 and 0.781; the Ratio OD(Variant)/OD(WT) was 0.985 and 0.992.

B9: KB001 mouse Fab VL T52M (Fab, V domains shown)
VH: B1 VH
VL: B1 VL with K30S, T52M
As for B9, the OD450 nm came to 0.662 and the Ratio OD(Variant)/OD(WT) worked out at 0.841.

B10: KB001 mouse Fab VL S53D (Fab, V domains shown)
VH: B1 VH
VL: B1 VL with K30S, S53D
As for B10, the OD450 nm amounted to 0.775 and the Ratio OD(Variant)/OD(WT) came to 0.984.

B11: KB001 mouse Fab VL N54D (Fab, V domains shown)
VH: B1 VH
VL: B1 VL with K30S, N54D
Consider B11, for which the OD450 nm amounted to 0.725 and the Ratio OD(Variant)/OD(WT) stood at 0.925.

B12: KB001 mouse Fab VL S32W (Fab, V domains shown)
VH: B1 VH
VL: B1 VL with K30S, S32W
With B12, the OD450 nm was 0.649 and the Ratio OD(Variant)/OD(WT) came to 0.856.

B13: KB001 mouse Fab VL S53A (Fab, V domains shown)
VH: B1 VH
VL: B1 VL with K30S, S53A
With B13, the OD450 nm turned out to be 0.784 and the Ratio OD(Variant)/OD(WT) was 0.996.

B14: KB001 mouse Fab VL S31W (Fab, V domains shown)
VH: B1 VH
VL: B1 VL with K30S, S31W
Take B14: the OD450 nm turned out to be 0.808 and the Ratio OD(Variant)/OD(WT) amounted to 0.956.

B15: KB001 mouse Fab VL S53R (Fab, V domains shown)
VH: B1 VH
VL: B1 VL with K30S, S53R
As to B15, the OD450 nm was 0.637 and the Ratio OD(Variant)/OD(WT) worked out at 0.809.

B16: KB001 mouse Fab VL S31Q (Fab, V domains shown)
VH: B1 VH
VL: B1 VL with K30S, S31Q
With B16, the OD450 nm was 0.83 and 0.745 and 0.782; the Ratio OD(Variant)/OD(WT) was 0.982 and 0.882 and 0.925.

B17: KB001 mouse Fab VL S32P (Fab, V domains shown)
VH: B1 VH
VL: B1 VL with K30S, S32P
For B17, the OD450 nm came out at 0.744 and the Ratio OD(Variant)/OD(WT) turned out to be 0.88.

B18: KB001 mouse Fab VL T52R (Fab, V domains shown)
VH: B1 VH
VL: B1 VL with K30S, T52R
Regarding B18, the OD450 nm is 0.724 and 0.681 and 0.685; the Ratio OD(Variant)/OD(WT) was 0.919 and 0.865 and 0.87.

B19: KB001 mouse Fab VL L34I (Fab, V domains shown)
VH: B1 VH
VL: B1 VL with K30S, L34I
For B19, the OD450 nm was 0.67 and the Ratio OD(Variant)/OD(WT) worked out at 0.884.

B20: KB001 mouse Fab VL F33H (Fab, V domains shown)
VH: B1 VH
VL: B1 VL with K30S, F33H
As for B20, the OD450 nm came out at 0.736 and the Ratio OD(Variant)/OD(WT) is 0.971.

B21: KB001 mouse Fab VL N54I (Fab, V domains shown)
VH: B1 VH
VL: B1 VL with K30S, N54I
For B21, the OD450 nm is 0.755 and 0.772 and 0.754; the Ratio OD(Variant)/OD(WT) is 0.964 and 0.985 and 0.962.

B22: KB001 mouse Fab VL S53V (Fab, V domains shown)
VH: B1 VH
VL: B1 VL with K30S, S53V
Consider B22, for which the OD450 nm worked out at 0.702 and the Ratio OD(Variant)/OD(WT) came out at 0.891.

B23: KB001 mouse Fab VL S53C (Fab, V domains shown)
VH: B1 VH
VL: B1 VL with K30S, S53C
As to B23, the OD450 nm came to 0.697 and the Ratio OD(Variant)/OD(WT) is 0.885.

B24: KB001 mouse Fab VL T52K (Fab, V domains shown)
VH: B1 VH
VL: B1 VL with K30S, T52K
Regarding B24, the OD450 nm is 0.681 and the Ratio OD(Variant)/OD(WT) is 0.865.

B25: KB001 mouse Fab VL L55Q (Fab, V domains shown)
VH: B1 VH
VL: B1 VL with K30S, L55Q
Consider B25, for which the OD450 nm is 0.711 and 0.692 and 0.684; the Ratio OD(Variant)/OD(WT) is 0.907 and 0.883 and 0.873.

B26: KB001 mouse Fab VL S31D (Fab, V domains shown)
VH: B1 VH
VL: B1 VL with K30S, S31D
Regarding B26, the OD450 nm came out at 0.762 and the Ratio OD(Variant)/OD(WT) turned out to be 0.902.

B27: KB001 mouse Fab VL N54L (Fab, V domains shown)
VH: B1 VH
VL: B1 VL with K30S, N54L
Turning to B27, the OD450 nm is 0.774 and the Ratio OD(Variant)/OD(WT) stood at 0.988.

B28: KB001 mouse Fab VL S53E (Fab, V domains shown)
VH: B1 VH
VL: B1 VL with K30S, S53E
Consider B28, for which the OD450 nm stood at 0.766 and the Ratio OD(Variant)/OD(WT) was determined as 0.973.

B29: KB001 mouse Fab VL S53L (Fab, V domains shown)
VH: B1 VH
VL: B1 VL with K30S, S53L
Consider B29, for which the OD450 nm is 0.639 and 0.636; the Ratio OD(Variant)/OD(WT) is 0.811 and 0.808.

B30: KB001 mouse Fab VL N54K (Fab, V domains shown)
VH: B1 VH
VL: B1 VL with K30S, N54K
Take B30: the OD450 nm is 0.727 and the Ratio OD(Variant)/OD(WT) amounted to 0.928.

B31: KB001 mouse Fab VL S53W (Fab, V domains shown)
VH: B1 VH
VL: B1 VL with K30S, S53W
B31: the OD450 nm was 0.727 and the Ratio OD(Variant)/OD(WT) worked out at 0.923.

B32: KB001 mouse Fab VL S32Y (Fab, V domains shown)
VH: B1 VH
VL: B1 VL with K30S, S32Y
Regarding B32, the OD450 nm is 0.753 and the Ratio OD(Variant)/OD(WT) turned out to be 0.891.

B33: KB001 mouse Fab VL N54A (Fab, V domains shown)
VH: B1 VH
VL: B1 VL with K30S, N54A
Consider B33, for which the OD450 nm was found to be 0.776 and the Ratio OD(Variant)/OD(WT) is 0.99.

B34: KB001 mouse Fab VL N54E (Fab, V domains shown)
VH: B1 VH
VL: B1 VL with K30S, N54E
Consider B34, for which the OD450 nm was 0.744 and 0.74; the Ratio OD(Variant)/OD(WT) was 0.95 and 0.944.

B35: KB001 mouse Fab VL L34V (Fab, V domains shown)
VH: B1 VH
VL: B1 VL with K30S, L34V
Regarding B35, the OD450 nm was 0.641 and 0.634; the Ratio OD(Variant)/OD(WT) is 0.846 and 0.836.

B36: KB001 mouse Fab VL T52L (Fab, V domains shown)
VH: B1 VH
VL: B1 VL with K30S, T52L
For the molecule B36, the OD450 nm was found to be 0.769 and the Ratio OD(Variant)/OD(WT) was determined as 0.977.

B37: KB001 mouse Fab VL S32A (Fab, V domains shown)
VH: B1 VH
VL: B1 VL with K30S, S32A
As for B37, the OD450 nm was 0.748 and 0.805; the Ratio OD(Variant)/OD(WT) was 0.885 and 0.953.
